B1: C1orf55 (parent)
chain: FTSPDYQQQCHEMAERLEDSVLKG
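Note: lentivirally expressed fusions sorted by FACS into six bins by GFP to DsRed ratio, PSI derived from sequencing read proportions per bin multiplied by bin number.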

The variants in the data set derive from B1. Description: protein stability index of a GFP-peptide fusion (GPS, HEK-293T) (PSI 1-6); higher = more stable. As to conditions: c terminus: a fixed tail appended.
Consider FTSPDYQQQCHEMAERLEKSVLKG, for which the protein stability index turned out to be 1.35.
To FTSPDYQQQCHEMAERLELSVLKG belongs 1.91; to FTSPDYQQQCHEMAERLEYSVLKG, 1.91.
The same measure for FTSPDYQQQCHEMAERLEPSVLKG: 1.98.
The same measure for FTSPDYQQQCHEMAERLEDSVLQG: 2.23.
With FTSPDYQQQCHEMAERLEDSVLHG, the protein stability index was 1.89.
The same measure for FTSPDYQQQCHEMAERLEDSVLFG: 1.5; for FTSPDYQQQCHEMAIRLEDSVLKG: 1.86.
The same measure for FTSPDLQQQCHEMAERLEDSVLKG: 4.3; for FTSPDDQQQCHEMAERLEDSVLKG: 4.95; for FTSPDYQQQCHEMNERLEDSVLKG: 2.75.
To FTSPDYQQQCHEMWERLEDSVLKG belongs 2.1.
FTSPDYQQQCHEMAEFLEDSVLKG: the protein stability index is 2.29.
Consider FTSPDYQQQCHEMAEHLEDSVLKG, for which the protein stability index was found to be 2.33.
To FTSPDYQQQCHEMAEMLEDSVLKG belongs 2.44; to FTSPDYQQQCHEMAEALEDSVLKG, 2.08.
The same measure for FTSPDYQQQCHEMAECLEDSVLKG: 2.31; for FTSPDYQQQCHEMAEELEDSVLKG: 2.45; for FTSPDYQQQCHEMAEVLEDSVLKG: 2.45.
To FTSPDYQQQCHEMAEPLEDSVLKG belongs 2.56; to FTSPDYQQQCHEMAERLEDSVLKD, 1.91; to FTSPDYQQQCHEMAERLEDSVLKL, 1.87.
As for FTSPDYQQQCHEMAERLEDSVLKS, the protein stability index came out at 1.89.
Consider FTSPDYQQQCHEMAERLEDSVLKM, for which the protein stability index was 2.44.
The same measure for FTSPDYQQQCHEMAERLEDSVLKA: 1.98; for FTSPDYQQQCHEMAERLEDSVLKV: 1.72; for FTSPDYQQQCHEMAERLEDSVLKE: 2.74.
The same measure for FTSPDYQQQCHEMAERLPDSVLKG: 1.78.
To FTSPDYQQQCHEMAERLNDSVLKG belongs 1.44; to FTSPDYQQQCHEMAERLSDSVLKG, 2.06.
For the variant FTSPDYQQQCHEMAERLDDSVLKG, the protein stability index turned out to be 1.9.
The same measure for FTSPDYQQQCHEMAERLQDSVLKG: 2.05; for FTSPDYQQQCHEMAERLTDSVLKG: 1.4; for FTNPDYQQQCHEMAERLEDSVLKG: 2.75.
The same measure for FTYPDYQQQCHEMAERLEDSVLKG: 3.13; for FTMPDYQQQCHEMAERLEDSVLKG: 2.96.
The same measure for FTHPDYQQQCHEMAERLEDSVLKG: 3.34; for FTAPDYQQQCHEMAERLEDSVLKG: 2.89.
Consider FTSPDYQQQCHEGAERLEDSVLKG, for which the protein stability index is 2.56.
To FTSPDYQQQCHEKAERLEDSVLKG belongs 2.79; to FTSPDYQQQCHEWAERLEDSVLKG, 2.02.
To FTSPDYQQQCHEEAERLEDSVLKG belongs 2.62; to FTSPDYQQQCHEMAERLEDSELKG, 2.87; to FTSPDYQQQCHEMAERLEDSFLKG, 2.01.
Regarding FTSPDYQQQCHEMAERLEDSLLKG, the protein stability index came out at 2.17.
Regarding FTSPDYQQQCHEMAERLEDSQLKG, the protein stability index was determined as 2.21.
With FESPDYQQQCHEMAERLEDSVLKG, the protein stability index was found to be 4.24.
The same measure for FDSPDYQQQCHEMAERLEDSVLKG: 4.63; for FSSPDYQQQCHEMAERLEDSVLKG: 3.39.
To FPSPDYQQQCHEMAERLEDSVLKG belongs 3.77; to FTSPDYQQQCLEMAERLEDSVLKG, 1.87; to FTSPDYQQQCKEMAERLEDSVLKG, 2.1.
To FTSPDYQQQCREMAERLEDSVLKG belongs 2.45.
Consider FTSPDYQQQCDEMAERLEDSVLKG, for which the protein stability index stood at 2.83.
To FTSPDYQQQCHEMAERKEDSVLKG belongs 1.97; to FTSPDYQQQCHEMAERVEDSVLKG, 2.35.
To TTSPDYQQQCHEMAERLEDSVLKG belongs 4.88; to LTSPDYQQQCHEMAERLEDSVLKG, 5; to WTSPDYQQQCHEMAERLEDSVLKG, 3.75.
To DTSPDYQQQCHEMAERLEDSVLKG belongs 4.84.
For FTSPDYQQMCHEMAERLEDSVLKG, the protein stability index came to 2.08.
For FTSPDYQQHCHEMAERLEDSVLKG, the protein stability index came to 1.85.
To FTSPDYQWQCHEMAERLEDSVLKG belongs 2.04; to FTSPDYQYQCHEMAERLEDSVLKG, 1.99.
To FTSPDYQTQCHEMAERLEDSVLKG belongs 2.6; to FTSPTYQQQCHEMAERLEDSVLKG, 2.17.
To FTSPVYQQQCHEMAERLEDSVLKG belongs 1.86; to FTSKDYQQQCHEMAERLEDSVLKG, 2.41; to FTSHDYQQQCHEMAERLEDSVLKG, 2.63.
Consider FTSWDYQQQCHEMAERLEDSVLKG, for which the protein stability index was found to be 2.61.
FTSDDYQQQCHEMAERLEDSVLKG: the protein stability index came to 4.06.
The same measure for FTSRDYQQQCHEMAERLEDSVLKG: 2.8; for FTSMDYQQQCHEMAERLEDSVLKG: 2.23.
The same measure for FTSPDYQQQCHEMAERLEDSVVKG: 2.75; for FTSPDYQQQCHEMAERLEDSVKKG: 2.12.
The same measure for FTSPDYQQQCHEMAERLEDSVNKG: 2.93; for FTSPDYQQQCHEMAERLEDSVFKG: 1.9; for FTSPDYQQQCHAMAERLEDSVLKG: 2.79.
For the variant FTSPDYQQQCHRMAERLEDSVLKG, the protein stability index came to 1.87.
The same measure for FTSPDYQQQCHSMAERLEDSVLKG: 1.73; for FTSPDYQQQCHPMAERLEDSVLKG: 1.5.
To FTSPDYQQQCHYMAERLEDSVLKG belongs 2.35; to FTSPDYQQQCHEMAERLEDMVLKG, 2.06; to FTSPDYQQQCHEMAERLEDPVLKG, 2.12.
For FTSPDYQQQCHEMAERLEDTVLKG, the protein stability index was 2.08.
The same measure for FTSPDYQQQCHEMAERLEDCVLKG: 2.4.
For the variant FTSPDYAQQCHEMAERLEDSVLKG, the protein stability index came out at 1.12.
Take FTSPDYLQQCHEMAERLEDSVLKG: the protein stability index stood at 2.13.
The same measure for FTSPDYMQQCHEMAERLEDSVLKG: 2.01.
As to FTSPDYQQQLHEMAERLEDSVLKG, the protein stability index was found to be 2.55.
To FTSPDYQQQNHEMAERLEDSVLKG belongs 3.37; to FTSPDYQQQGHEMAERLEDSVLKG, 3.29.
To FTSPDYQQQQHEMAERLEDSVLKG belongs 3.47; to FTSPDYQQQTHEMAERLEDSVLKG, 2.26.
